One series deals with HCT-15. In words: In vitro cytotoxicity (CellTiter-Glo) HCT-15. The note with it: HCT-15, Colorectal. In kind it is cell-based. An excerpt:
Table 1 and Table 2 Notes: in general regression and stable disease correlated with the in vitro cytotoxicity and MT1-MMP expression. Female BALB/c mice n=3/group animals dosed twice per week except EBC-1 three per week. Tumor growth inhibition (TGI) (%)=[1−(Ti−T0)/(Vi−V0)]×100; Ti is the average tumor volume of a treatment group on a given day, TO is the average tumor volume of the treatment group on the day of treatment start, Vi is the average tumor volume of vehicle control group on the same day with Ti, and V0 is the average tumor volume of vehicle group on the day of treatment start. A one-way ANOVA was performed to compare tumor volume among groups, and when a significant F-statistics (a ratio of treatment variance to the error variance) was obtained, comparisons between groups were carried out with Games-Howell test. All data were analyzed using GraphPad Prism.* p<0.05, ** p<0.01, *** p<0.001. In vitro cytotoxicity was measured by CellTiter-Glo®, MT1-MMP membrane H score from immunohistochemistry staining, NM not measured. Tumor size on Day 1 of dosing.
(Cellular ATP, detected with luciferase, serves as a proxy for viable cell number.)

Series [1] in a line: Intrinsic clearance in cryopreserved hepatocytes. In kind it is in vitro ADME. The protocol:
Accumulation of the majority of the radioactivity was found in the kidney and bladder irrespective of the labelled peptide dose; this is indicative of either non-saturable excretion or proteolysis followed by excretion through the kidneys. Furthermore, the intrinsic clearance of BT1718 and its Bicycle component, N241 was low when measured in cryopreserved hepatocytes. […] Unconjugated DM1, when radiolabelled, (as [[^3H]-DM1 (91 μCi/kg, 200 μg/kg, IV), was reported to distribute rapidly and extensively to the lungs, liver, kidney, spleen, heart, gastrointestinal tract, and adrenal glands in the rat. The major route of excretion of DM1 was through the bile/faeces, with a minimal amount excreted in the urine, a completely different distribution to BT1718 and its metabolites with little and short lived accumulation seen in other organs such as heart, liver, GI and lungs which would imply that these organs maybe spared systemic toxicity.

Series [2] in a line: Crl:WI(Han) rat non-GLP tox study toxicokinetics. In kind it is in vivo, Crl: WI(Han) rats. To be noted: male, plasma, iv.
A short description of series [3]: Repeat dose toxicokinetics, rat and monkey. The note with it: both sexes, plasma, intravenous, rat or monkey, irrespective of dose, read-out: Plasma t1/2. In kind it is in vivo. An excerpt: In a repeat dose experiment with BT1718 no significant gender-related differences in the TK parameters for the rat or monkey were noted. Exposure in both the rat and monkey increased approximately linearly with dose and was maintained for 28 days on repeat dosing. […] Plasma clearance and volume of distribution were similar across BT1718 dose and consistent with the PK studies.

Series [4] in a line: GLP-compliant 28-day repeat dose toxicity study, monkey. The series is classed as in vivo, Cynomolgus monkeys. The protocol:
In a GLP-compliant study in Cynomolgus monkeys, the highest non-severely toxic dose (HNSTD) of BT1718 was established to be 18 mg/m^2 administered twice weekly, equivalent to a human dose of 0.48 mg/kg. In a GLP-compliant study in the rat, the MTD was not reached with the highest administered dose 6 mg/m^2 twice weekly. At this dose level, there was kidney toxicity (with no effect on clinical condition) and also testicular toxicity. After 28 days off-dose, there was evidence of partial recovery of kidney-related findings, but no recovery of testicular effects at this dose level. […] Therefore, the MTD for rat for twice weekly dosing was considered to be between 1 and 1.5 mg/kg.

Series [5] can be described thus: Preclinical PK and toxicokinetics, summary across studies. Also on record: species or system mice and rats. The note with it: mouse and rat, in vivo, intravenous, read-out: half-life estimate. The text has this:
BT1718 has low molecular weight (3.5 kDA) in comparison to other conjugated toxin approaches, which enables rapid penetration of tumor tissue. […] Hypothesized advantages over ADCs therefore include reduced systemic exposure of normal tissues to circulating BT1718, the ability to manage toxicity during recovery periods, as well as the improved tumor penetrance. Other potential advantages include a fixed peptide:conjugate ratio of 1:1 (c.f. ADCs where variable conjugation results in mixed populations) and with more scalable manufacturing as a small molecule (c.f. biologics such as ADCs).

Like-named read-outs stand apart in the source and are kept apart here. Numbered stars: 1 amine (or outer) side, 2 acyl side, 3 side chain; on linkers, the order of the positions; unused ones are H or OH. Bridge positions count the residues as written; N and C are the ends. Square brackets hold non-standard residues; d marks the D form. Peptide text beside a SMILES is read from it. * marks the point of attachment. X1 = COc1cc2cc(c1Cl)N(C)C(=O)C[C@H](OC(=O)[C@H](C)N(C)C(=O)CCSSC(C)CCC(=O)*)[C@]1(C)O[C@H]1[C@H](C)[C@@H]1C[C@@](O)(NC(=O)O1)[C@H](OC)/C=C/C=C(\C)C2; 1Nal = N[C@@H](Cc1cccc2ccccc12)C(=O)O; TBMB = c1c(C[*:1])cc(C[*:3])cc1C[*:2]; Tle = CC(C)(C)[C@H](N)C(=O)O; βAla = NCCC(=O)O; Sar = CNCC(=O)O

For the compound `COc1cc2cc(c1Cl)N(C)C(=O)C[C@H](OC(=O)[C@H](C)N(C)C(=O)CCSSC(C)CCC(=O)NCCC(=O)N(C)CC(=O)N(C)CC(=O)N(C)CC(=O)N(C)CC(=O)N(C)CC(=O)N(C)CC(=O)N(C)CC(=O)N(C)CC(=O)N(C)CC(=O)N(C)CC(=O)N[C@@H](C)C(=O)N[C@H]1CSCc3cc4cc(c3)CSC[C@H](NC(=O)[C@@H](C)NC(=O)[C@H](Cc3cccc5ccccc35)NC(=O)[C@H](CCC(=O)O)NC(=O)[C@H](CC(N)=O)NC(=O)[C@@H](C)NC1=O)C(=O)N[C@@H](CCC(=O)O)C(=O)N[C@@H](CC(=O)O)C(=O)N[C@@H](Cc1ccccc1)C(=O)N[C@@H](Cc1ccc(O)cc1)C(=O)N[C@@H](CC(=O)O)C(=O)N[C@@H](C(C)(C)C)C(=O)N[C@H](C(N)=O)CSC4)[C@]1(C)O[C@H]1[C@H](C)[C@@H]1C[C@@](O)(NC(=O)O1)[C@H](OC)/C=C/C=C(\C)C2` (stereo partly drawn) [BT1718] ({X1-βAla}-[Sar][Sar][Sar][Sar][Sar][Sar][Sar][Sar][Sar][Sar]AC[dA]NE[1Nal][dA]CEDFYD[Tle]C-NH2; linker 12-18-25 via TBMB (inferred)), the midpoint of inhibition with HCT-15, the IC50, lay at 870 nM. In addition, in series [1], the intrinsic clearance entry is reported as “low”. Moreover, the Cmax in series [2] (1.2 mg/m2, read-out: C0/Cmax) is 100 ± 10 nM; in series [2] (6 mg/m2, read-out: C0/Cmax) it was 400 ± 140 nM. Moreover, the half-life was 12 to 33.6 min in series [3] and 15 to 30 min in series [5]. This compound yielded an HNSTD in series [4] (28 day-repeat dose GLP monkey study, twice weekly) of 1.5 mg/kg. For the same compound, the “highest non-severely toxic dose (HNSTD)” value in series [4] (Cynomolgus monkeys, GLP, twice weekly) was 18 mg/m^2. In series [4] (GLP monkey), the GI-related findings result is on record as “No GI-related findings”. In addition, the bladder changes result in series [4] (GLP monkey) is on record as “No bladder changes”. Moreover, the liver toxicity entry in series [4] (GLP monkey up to 1.5 mg/kg, 18 mg/m^2 twice weekly) is recorded as “No liver toxicity”. Besides, the “local toxicity at or around injection site” value in series [4] (GLP monkey, 0.5 mg/kg (6 mg/m^2) twice weekly and above) is reported as “black colouration of the skin”. Also, the renal changes result in series [4] (GLP monkey, highest dose tested 1.5 mg/kg (18 mg/m^2)) was “No renal changes”. Besides, the “onset dose of minimal axonal degeneration” value in series [4] (GLP monkey, twice weekly) stood at 1 mg/kg. Besides, in series [4] (from 18 mg/m^2 twice weekly in monkeys), the “HNSTD, equivalent human dose” value is on record as 0.48 mg/kg. In addition, the “anti-drug antibodies (ADAs) in serum” value in series [4] (monkey 28-day GLP study) was “negative”. For the same compound, the reproductive organ findings entry in series [4] (monkey studies) is “No changes in reproduction organs”. Further, in series [4] (monkeys 1 mg/kg (12 mg/m^2) twice weekly or above), the increase in platelets is listed as 1.4-2.5 ×. Moreover, the lymphoid findings result in series [4] (monkeys 1 mg/kg or 1.5 mg/kg twice weekly) was “Reversible thymus atrophy and decreased germinal centres in lymph nodes”. The “white blood cell (WBC) reduction, maximum” value in series [4] (monkeys, onset 0.5 mg/kg (6 mg/m^2) twice weekly, reversible) stood at 0.11 ×. In series [4] (monkeys, onset 1 mg/kg (12 mg/m^2) twice weekly, reversible), the “reticulocyte reduction, maximum” value worked out at 0.2 ×.

The record behind these values is US20200129630A1, “METHODS FOR TREATING CANCER” (BicycleRD Limited, priority 2018, published 2020).
